The source of these data is patent US20020037286A1 (published 2002).

Test [1] addresses Arp2/3 complex (endogenous, Jurkat T-cells). The test can be described thus: cell-based or functional assay.
A further test deals with Ena/VASP proteins. The test can be described thus: cell-based or functional assay.
The target of test [2] is T1, zyxin (endogenous, Jurkat T-cells) (human, UniProt Q15942 2-572).
T1 sequence (looked up): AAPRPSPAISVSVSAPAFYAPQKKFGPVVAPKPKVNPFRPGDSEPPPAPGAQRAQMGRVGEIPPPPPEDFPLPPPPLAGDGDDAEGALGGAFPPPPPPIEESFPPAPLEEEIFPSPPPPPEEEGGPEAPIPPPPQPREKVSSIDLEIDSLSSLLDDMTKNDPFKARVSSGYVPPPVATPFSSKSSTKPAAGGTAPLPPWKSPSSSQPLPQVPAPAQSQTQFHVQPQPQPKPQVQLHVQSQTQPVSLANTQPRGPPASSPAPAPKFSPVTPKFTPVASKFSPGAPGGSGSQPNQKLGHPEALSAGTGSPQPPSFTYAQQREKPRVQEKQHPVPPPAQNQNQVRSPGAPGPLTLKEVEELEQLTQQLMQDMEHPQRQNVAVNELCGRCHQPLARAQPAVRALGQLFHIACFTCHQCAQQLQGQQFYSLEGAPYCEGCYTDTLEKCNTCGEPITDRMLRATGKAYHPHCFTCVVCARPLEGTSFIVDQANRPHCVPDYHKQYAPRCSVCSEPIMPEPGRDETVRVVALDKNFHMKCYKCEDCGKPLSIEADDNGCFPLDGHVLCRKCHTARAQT
Put plainly: co-immunoprecipitation from Jurkat T-cell lysate with WASP mAb 67B4, blot probed with zyxin mAb.
Procedure: After quick pelleting, stimulated and control cells were resuspended and incubated in DMEM/HEPES containing 15 λg/ml goat anti mouse IgG antibodies at 37° C. for 2 min. Jurkat NP-40 lysates were prepared at 1×10⁸ cells/ml in ice cold NP-40 lysis buffer (1% (v/v) NP-40, 150 mm NaCl, 10 mM Tris-Cl pH 7.8) supplemented with 60 μg/ml chymostatin, 10 g/ml pepstatin, 5 μg/ml leupeptin, 2 μg/ml aprotinin, 2 mM Pefabloc (Roche Diagnostics), 1 mM Na₃VO₄, and 10 mM NaF. […] Immunoprecipitations were carried out according to standard protocols using 0.2 ml of Jurkat NP-40 lysates derived from 2×10^7 cells.
Immunoprecipitates were resolved by SDS-PAGE. As positive control, Jurkat E6-1 lysates were used.

Take “myc-tagged ScarW (from UniProt Q92558 443-543)”: the length of the contact zone between the beads and Jurkat T-cells in test [1] worked out at 5 µm.

Molecule GFP-ActA-Repeats showed a length of the contact zone between Jurkat T-cells and anti CD3-coated beads in the test with Ena/VASP proteins of 3.84 µm.

Turning to GFP-ActA-Repeats F>A, the length of the contact zone between Jurkat T-cells and anti CD3-coated beads in the test with Ena/VASP proteins was determined as 5.16 µm.

For the molecule “myc-tagged ScarWA (from UniProt Q92558 443-559)”, the length of the contact zone between the beads and Jurkat T-cells in test [1] is 3.16 µm.

B1: WASP (endogenous, Jurkat T-cells) (other, human, UniProt P42768 2-502, looked up)
chain: SGGPMGGRPGGRGAPAVQQNIPSTLLQDHENQRLFEMLGRKCLTLATAVVQLYLALPPGAEHWTKEHCGAVCFVKDNPQKSYFIRLYGLQAGRLLWEQELYSQLVYSTPTPFFHTFAGDDCQAGLNFADEDEAQAFRALVQEKIQKRNQRQSGDRRQLPPPPTPANEERRGGLPPLPLHPGGDQGGPPVGPLSLGLATVDIQNPDITSSRYRGLPAPGPSPADKKRSGKKKISKADIGAPSGFKHVSHVGWDPQNGFDVNNLDPDLRSLFSRAGISEAQLTDAETSKLIYDFIEDQGGLEAVRQEMRRQEPLPPPPPPSRGGNQLPRPPIVGGNKGRSGPLPPVPLGIAPPPPTPRGPPPPGRGGPPPPPPPATGRSGPLPPPPPGAGGPPMPPPPPPPPPPPSSGNGPAPPPLPPALVPAGGLAPGGGRGALLDQIRQGIQLNKTPGAPESSALQPPPQSSEGLVGALMHVMQKRSRAIHSSDEGEDQAGDEDEDDEWDD
B1: the binding result in test [2] is on record as “no binding”.
